Results taken from paper PMC10180240, “Semi-Rational Design of L-Isoleucine Dioxygenase Generated Its Activity for Aromatic Amino Acid Hydroxylation” (Molecules, 2023).

Tests used:
[1] = test system: T1, N[C@@H](CCc1ccccc1)C(=O)O; assay: succinate release, succinic acid assay kit; Michaelis-Menten fit; assay type: biochemical, Bacillus thuringiensis; conditions: 10 mM alpha-KG, 0.5 mM FeSO4, 10 mM ascorbic acid, 50 mM Bis-Tris pH 6.0, 25 °C
T1 construct: full-length ido (240 aa without tag) in pET-28a(+) NcoI/SalI, expressed in E. coli BL21(DE3), Ni column
Text: (§1) succinate release, succinic acid assay kit; Michaelis-Menten fit on L-isoleucine dioxygenase (IDO)

N[C@@H](Cc1ccccc1)C(=O)O = test system: T2, N[C@@H](Cc1ccccc1)C(=O)O; assay: as above; assay type: biochemical, Bacillus thuringiensis; conditions: 10 mM alpha-KG, 0.5 mM FeSO4, 10 mM ascorbic acid, 50 mM Bis-Tris pH 6.0, 25 °C
T2 construct: full-length ido (240 aa without tag) in pET-28a(+) NcoI/SalI, expressed in E. coli BL21(DE3), Ni column
Text: as §1

| Substance | Km [1] | Vmax [1] | kcat [1] | kcat/Km [1] | Km (N[C@@H](Cc1ccccc1)C(=O)O) | Vmax (N[C@@H](Cc1ccccc1)C(=O)O) | kcat (N[C@@H](Cc1ccccc1)C(=O)O) | kcat/Km (N[C@@H](Cc1ccccc1)C(=O)O) |
| --- | --- | --- | --- | --- | --- | --- | --- | --- |
| L-isoleucine dioxygenase (IDO) (Bacillus thuringiensis; S153A) | 20 ± 0 µM | 0.09 µmol/min/mg | 0.05 s⁻¹ | 2500 ± 40 M⁻¹ s⁻¹ | 20 ± 0 µM | 0.05 µmol/min/mg | 0.03 s⁻¹ | 1500 ± 50 M⁻¹ s⁻¹ |
| L-isoleucine dioxygenase (IDO) (Bacillus thuringiensis; Y143D) |  |  |  |  | 40 ± 0 µM | 0.15 µmol/min/mg | 0.08 s⁻¹ | 2000 ± 10 M⁻¹ s⁻¹ |
| L-isoleucine dioxygenase (IDO) (Bacillus thuringiensis; S153Y) | 20 ± 0 µM | 0.08 µmol/min/mg | 0.03 s⁻¹ | 1500 ± 40 M⁻¹ s⁻¹ |  |  |  |  |
| L-isoleucine dioxygenase (IDO) (Bacillus thuringiensis; Y143I) | 20 ± 0 µM | 0.08 µmol/min/mg | 0.04 s⁻¹ | 2000 ± 80 M⁻¹ s⁻¹ | 30 ± 0 µM | 0.1 µmol/min/mg | 0.04 s⁻¹ | 1330 ± 40 M⁻¹ s⁻¹ |
| L-isoleucine dioxygenase (IDO) (Bacillus thuringiensis; S153Q) | 40 ± 10 µM | 0.21 µmol/min/mg | 0.14 ± 0.01 s⁻¹ | 3500 ± 100 M⁻¹ s⁻¹ |  |  |  |  |
